In US20060165707A1:

What was measured:
[1] = target: … / HLA-A2 / wild-type β2m on T2 cells (human)
[2] = target: … / HLA-A2 / β2m K58→E on T2 cells (human)

Substance: HLA-A2 restricted parvovirus B19 specific CTL line (cells without a defined receptor)
- specific lysis (51Cr release), E:T 22:1, 4 hours [1]: 7.3%
- specific lysis (51Cr release), E:T 22:1, 4 hours [2]: 2.6%
